From PMC3985676

Biological target: BswR (Bacterial SWarming Regulator), PA2780 (Pseudomonas aeruginosa)
Assay: SEC; gel filtration profile during protein purification; HiLoad Superdex 75 26/60; 20 mM Tris pH 7.5, 200 mM NaCl, 5 mM beta-ME

Work on “BswR (Bacterial SWarming Regulator), PA2780 (natural protein)” yielded a stoichiometry N of 2.
